From paper PMC11087588, “Genetic and functional diversity of β-N-acetylgalactosamine-targeting glycosidases expanded by deep-sea metagenome analysis” (Nature Communications, 2024)

Assays:
[1] = target: T1, NgaLy (Lacticaseibacillus yichunensis, UniProt A0ABW4CMK8, Y392A); assay: relative activity versus wild type; format: biochemical; details: substrate taken from the standard assay (Assay I)
T1 construct: gene ACFQ47_05640; synthetic gene, pET-47b(+), E. coli BL21 Star (DE3); His tag cut with HRV3C; monomer; DE motif D327/E328

[2] = target: T2, NgaLy (Lacticaseibacillus yichunensis, UniProt A0ABW4CMK8, W431A); assay: relative activity versus wild type; format: biochemical; details: substrate taken from the standard assay (Assay I)
T2 construct: gene ACFQ47_05640; synthetic gene, pET-47b(+), E. coli BL21 Star (DE3); His tag cut with HRV3C; monomer; DE motif D327/E328

[3] = substrate: CC(=O)N[C@H]1[C@H](Oc2ccc([N+](=O)[O-])cc2)O[C@H](CO)[C@H](O)[C@@H]1O; assay: purified protein; format: biochemical, Lacticaseibacillus yichunensis; details: HEPES pH 7.0, 40 °C (optimum), apparent, not saturated up to 2 mM
[4] = substrate: CC(=O)N[C@H]1[C@H](Oc2ccc([N+](=O)[O-])cc2)O[C@H](CO)[C@H](O)[C@@H]1O; assay: purified protein; format: biochemical, Paenibacillus sp. TS12; details: citrate pH 5.5, 40 °C (optimum), apparent, not saturated up to 2 mM
[5] = substrate: CC(=O)N[C@H]1[C@H](Oc2ccc([N+](=O)[O-])cc2)O[C@H](CO)[C@H](O)[C@@H]1O; assay: purified protein; format: biochemical, Brachybacterium faecium; details: citrate pH 6.5, 35 °C (optimum), apparent, not saturated up to 2 mM
[6] = substrate: CC(=O)N[C@H]1[C@H](Oc2ccc([N+](=O)[O-])cc2)O[C@H](CO)[C@H](O)[C@@H]1O; assay: purified protein; format: biochemical, Arabidopsis thaliana; details: citrate pH 5.0, 40 °C (optimum), apparent, not saturated up to 2 mM
[7] = substrate: CC(=O)N[C@H]1[C@H](Oc2ccc([N+](=O)[O-])cc2)O[C@H](CO)[C@H](O)[C@@H]1O[C@@H]1O[C@H](CO)[C@H](O)[C@H](O)[C@H]1O; assay: purified protein; format: biochemical, Cohnella abietis; details: citrate pH 5.0, 25 °C (optimum), apparent, not saturated up to 2 mM
[8] = substrate: CC(=O)N[C@H]1[C@H](Oc2ccc([N+](=O)[O-])cc2)O[C@H](CO)[C@H](O)[C@@H]1O; assay: purified protein; format: biochemical, Bathyarchaeia (SeqCode); details: citrate pH 6.5, 70 °C (optimum), apparent, not saturated up to 2 mM

T2 sequence (A0ABW4CMK8 entry or part of it W431A): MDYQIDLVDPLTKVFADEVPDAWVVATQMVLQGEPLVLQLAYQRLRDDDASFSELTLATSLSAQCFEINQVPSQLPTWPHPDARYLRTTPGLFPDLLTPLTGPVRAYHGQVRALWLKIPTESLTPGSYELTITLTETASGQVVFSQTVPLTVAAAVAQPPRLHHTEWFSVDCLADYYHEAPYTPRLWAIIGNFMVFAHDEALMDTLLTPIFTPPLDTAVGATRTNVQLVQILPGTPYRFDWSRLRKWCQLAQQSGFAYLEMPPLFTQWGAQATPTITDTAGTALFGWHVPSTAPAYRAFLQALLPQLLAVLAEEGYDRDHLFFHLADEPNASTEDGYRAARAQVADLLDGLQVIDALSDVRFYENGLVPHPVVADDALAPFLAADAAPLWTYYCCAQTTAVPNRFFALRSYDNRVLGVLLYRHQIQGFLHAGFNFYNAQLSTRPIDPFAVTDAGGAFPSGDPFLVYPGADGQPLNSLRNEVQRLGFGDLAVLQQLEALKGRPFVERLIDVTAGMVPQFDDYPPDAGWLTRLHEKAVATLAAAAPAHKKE
T1 sequence (A0ABW4CMK8 entry or part of it Y392A): as the sequence (A0ABW4CMK8 entry or part of it W431A) above, with Y392A, A431W counted along it

## CC(=O)N[C@H]1[C@H](Oc2ccc([N+](=O)[O-])cc2)O[C@H](CO)[C@H](O)[C@@H]1O [GalNAc-β-pNP]
[1]
  relative activity versus wild type: The Y392A and W431A mutants were purified as soluble enzymes
[2]
  relative activity versus wild type: The Y392A and W431A mutants were purified as soluble enzymes

B1: NgaLy (Lacticaseibacillus yichunensis) (protein)
chain: MDYQIDLVDPLTKVFADEVPDAWVVATQMVLQGEPLVLQLAYQRLRDDDASFSELTLATSLSAQCFEINQVPSQLPTWPHPDARYLRTTPGLFPDLLTPLTGPVRAYHGQVRALWLKIPTESLTPGSYELTITLTETASGQVVFSQTVPLTVAAAVAQPPRLHHTEWFSVDCLADYYHEAPYTPRLWAIIGNFMVFAHDEALMDTLLTPIFTPPLDTAVGATRTNVQLVQILPGTPYRFDWSRLRKWCQLAQQSGFAYLEMPPLFTQWGAQATPTITDTAGTALFGWHVPSTAPAYRAFLQALLPQLLAVLAEEGYDRDHLFFHLADEPNASTEDGYRAARAQVADLLDGLQVIDALSDVRFYENGLVPHPVVADDALAPFLAADAAPLWTYYCCAQTTAVPNRFFALRSYDNRVLGVLLYRHQIQGFLHWGFNFYNAQLSTRPIDPFAVTDAGGAFPSGDPFLVYPGADGQPLNSLRNEVQRLGFGDLAVLQQLEALKGRPFVERLIDVTAGMVPQFDDYPPDAGWLTRLHEKAVATLAAAAPAHKKE
notes: synthetic gene, pET-47b(+), E. coli BL21 Star (DE3); His tag cut with HRV3C; monomer; DE motif D327/E328
[3]
  Km: 1.0 ± 0.05 mM
  kcat: 480 ± 10 s⁻¹

B2: NgaP2 (Paenibacillus sp. TS12) (protein)
chain: LIRWSQVDEEGDTIMLEELPDFETRCLSSLSKVFADAELHDLPVNTGSAMWKEVFSFQVAYRSPQLIKSLKISAESELEPYLAIRAVGLSPSELPVFPNPDEGYIRTAPGLYPDPLYPLADGVHAVPNQWRSVWVTVSLPSMSEFIPAADIGAESVSFPIDLCFEDGKGNHLGAEKFALEIIFQELPEQTLLHTEWFHSDCIATQYKVEVFSEAHWKLIESYVHNAVNHGVNMLLTPLFTPPLDTYVGGERPTVQLIDVEITGVNEYRFKFDRLERWVEMCQRLGIQFIEFSHLFTQWGAKYAPKIIAKKDGEEKRIFGWDTEASGESYSLFLDQFLPQLVHFIRNHHLDDKVFFHVSDEPGMKHAESYRQASDILNKHLAGFSILDALSDYDFYEKGLVQIPVPSNDQIEPFIEHGVEPLWTYYCCGQDHHVSNRFFSLSSPRNRVLGAQLYKFGVQGFLHWGFNFWYSQYSKKVIDPFKVTDADCAFPSGDPFVVYPGADGPLDSIRWEVFREGLQDLRALKLLEALAGREKTLALLEQNLREELTFKSFPDDIEWLLSTREKINRAIKDAYRADR
notes: cloned from genomic DNA, pET-47b(+), E. coli BL21 Star (DE3); His tag cut with HRV3C; monomer; not the GH123 NgaP of the same strain
[4]
  Km: 0.36 ± 0.03 mM
  kcat: 28 ± 0.6 s⁻¹

B3: NgaBf (Brachybacterium faecium DSM 4810) (protein)
chain: MQTVLTDSLEKVLGESAPRPAAPIGGAHASGFLGEVLSVQVALRAEEGEAPDPRSAEHAALRVRLGGEIADSARVHAVRRVPVSSPAPAEADEHYLATAPGEYPDLLEPLGGEEVRVGRGLWEALWIDVIDAPPGEHTLTLALTDTTGEQVLAEHAVQLRVHPHQLPPLSITNTHWFHADSLSTYYDVEVLSPQHWELIEAFLASAREMDVTSVLTPTWTPPLDTAEGHTRPFVQLIGIREEEGEYSFDLSALDRWLEICGRLGFTGIEIAHLFTQWGARSTPAIQVETGSGLEHRFGWHVPATSPEYRRLLEALIPVLRAHLEEHWDGQVLWHISDEPHEDQLDSYRAAKEQVADLLEGAQVVDALSSLAFAEQGVVDTPIVATSHVGPFLEAGRRPWVYYCVSQNRDVANRFIAQPSVRNRVLGRQLFAFDAPGFLHWGYNFWWAQFSLRPIDPFEETCAGGPFFGGDSFAVYPGPEGTPWLSLRHRVFAQAMADHRALTWLAELTDRPSAVALVDEGGTLTYSSFSYDVHAHLEARHAVDERIRAALAA
notes: synthetic gene, pET-47b(+), E. coli BL21 Star (DE3); His tag cut with HRV3C; monomer
[5]
  Km: 1.0 ± 0.07 mM
  kcat: 170 ± 5 s⁻¹

B4: NgaAt (Arabidopsis thaliana) (protein)
chain: MDNNVSQEMTVPVEGVAGGGTAYGFNDAEPLKQSTDPSEVPTADLVNVWCMPNTVNVGSQETPRALEPINLLAARNERESFQIAMRPKVSWAASSPSGIVQVQCSDLCSSAGDRLVVGQSLKLRRVVPVLGVPDALVPLDLPVSQLSLFPGETSVIWVSIDVPTGQPPGQYEGEIIISAMKTDGGGSSHLAKHEKDQLCVELNTCLDIMEPIEGKPMDEVVERIKCASSSLRRILFSPSFSEFISTNGSTDMMEEDVVSNLSLRIKLRLTVWEFIIPVTPSLPAVIGVSDTVIEDRFAVEHGSEDWYKKLDLHFKWLLQYRISPYFCKWGESMRVLTYTSPWPADHPKSDEYLSDSRLAAYAVPYRQVIAGDDSRESYLRKEVEILRSKPHWNKAYFYLWDEPLNMEHFDNVRKMASEIYAYAPDSRVLTTYYCGPGDAPLAPTPFESFVKVPNLLRPYTQIYCTSEWVLGNREDLVKDILDELQTENGEEWWTYICLGPSDPHPNWHLGMRGTQQRAVMWRVWKEGGTGFLYWGANCYEKATVPSAEVKFRRGLPPGDGVLYYPGEVFSSSSEPVASLRLERLLSGLQDYEYLKLYESKYGREEAMGLLEKTGVYTGPERYTLEHRPIDVLRGEVYNTCRPS
notes: synthetic gene, pET-47b(+), E. coli BL21 Star (DE3); His tag cut with HRV3C; monomer; extra N-terminal domain of ~80 residues disordered in crystal
[6]
  Km: 12 ± 5 mM
  kcat: 8 ± 3 s⁻¹

B5: NgaCa (Cohnella abietis) (protein)
chain: MANTQKTLSLSVWTASSQERVRQDDPAGESLNIELFAARGEYESFQVALKAPEGEHRNVHFVVSDLKGTGDSFISKSNLTLYREHYVYISESSPQRGTVLPEGPGWYPDALIPFIDPATNEPPSGGELIAVPFALENNSNQVIWVDIQVPRDAEAGHYSGSYIVSSEHGEVTGQISLTVWNFELPLKPSLKSTFLIWSSRKKSTVEELLKHKLMCQQWNLSEEEKGAAPTSEGEWIEKYGVNCSGLGFWSKADTFNGVMPPPPTVEEIQAAASAHPSNLFLYNYTADEIGHYTSLYEPIKAWARNLHEAGVANLITMAPVPELYDDGSGSGRSAVDIWVILPLQYDKDRIQEVLAKGDEVWSYNCCVQDDYSPKWQIDFNPIEYRIQPGFINQSLGMTGILYWRVDFWTEDPWHDVLTLRADGMEFNGEGMLVYPGEQVGIDGVVPSIRLKAIRKGIEDYEYIEILKNLGHEQWALEISQSVGPDWHNWTKDHHKLEWARKQLGERINDLMTK
notes: as for B3
[7]
  Km: 11 ± 3 mM
  kcat: 1.2 ± 0.3 s⁻¹

B6: NgaBa (Bathyarchaeia (SeqCode)) (protein)
chain: MSRFDVWVQDSLTKVFRDSPKPEDAIKDVVLDAVRNEYEAAQIVVHPLEDVERLEVRVTSLRHESDEYAITRVYPRFVGYVPVKRNTPDTPPEELVRKAPGMFPDPLLEEETVRVKKGENQPVWLTVYVPKDAPPGTYHGEVLIRADGDETRVKTCLRVHDVILPDERNLKLSNFLSPHNISKFHGVELWSEDFWRLLKAYARNMAEHRQSSIITPILELTRIYKGDDRLEFDFRLLDRWINLFKEEGVIGTVEGGYLAGRPPRTVEGWWTVSEFLSRRYRVFNKDGSLAYVQEPVKVSSPVFEEFISQFMPALQAHLDELGLLDSYVQHLADEPIDANAESYKHIAGLVRKYAPKIRIIEASTCKRLVDYIDVLVPLLDDYDKNMSFYEERKRRGNEVWFYTCLAPTGRYPNRLIDYSLVKVRILHWINFKYGLVGYLHWGYNYWTEKPFEDVENEPSHPFPLPPGDPFIVYPGKSGPLDSIRFEALRDGVEDYELFKLLAERKGLDEAVGLCSLAVKTITDYVRSSGELLSIRLRLINELESLG
notes: as for B3
[8]
  Km: 3.9 ± 1 mM
  kcat: 510 ± 50 s⁻¹
